In article PMC10397247:
Read-outs that look alike come from different tables or passages of the source.

How the values were obtained:
[1] = molecular target: T1, 4H3057-bH; experiment: two-hybrid library CCNG1;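 also: natural log of median RNA to DNA barcode read ratio; higher means stronger binding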
T1 chain: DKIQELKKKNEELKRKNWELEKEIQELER

[2] = molecular target: T2, 4H319-bH; experiment: two-hybrid library CCNG1;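 also: natural log of median RNA to DNA barcode read ratio; higher means stronger binding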
T2 chain: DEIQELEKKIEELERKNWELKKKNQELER

[3] = molecular target: T3, 4H3277-bH; experiment: two-hybrid library CCNG1;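 also: natural log of median RNA to DNA barcode read ratio; higher means stronger binding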
T3 chain: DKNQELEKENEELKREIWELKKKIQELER

[4] = molecular target: T4, 4H348-bH; experiment: two-hybrid library CCNG1;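 also: natural log of median RNA to DNA barcode read ratio; higher means stronger binding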
T4 chain: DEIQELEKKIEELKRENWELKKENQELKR

[5] = molecular target: T5, 4H40-bH; experiment: two-hybrid library CCNG1;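 also: natural log of median RNA to DNA barcode read ratio; higher means stronger binding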
T5 chain: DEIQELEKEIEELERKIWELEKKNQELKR

[6] = molecular target: T6, 4H477-bH; experiment: two-hybrid library CCNG1;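 also: natural log of median RNA to DNA barcode read ratio; higher means stronger binding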
T6 chain: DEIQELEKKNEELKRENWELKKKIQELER

[7] = molecular target: T7, 4H492-bH; experiment: two-hybrid library CCNG1
T7 chain: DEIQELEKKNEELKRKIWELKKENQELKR

[8] = molecular target: T8, 4H741-bH; experiment: two-hybrid library CCNG1
T8 chain: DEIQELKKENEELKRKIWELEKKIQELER

[9] = molecular target: T9, AP7-AA; experiment: two-hybrid library CCmax
T9 chain: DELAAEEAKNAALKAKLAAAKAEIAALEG

[10] = molecular target: T10, AP8-AA; experiment: two-hybrid library CCmax; settings: mean of both orientations
T10 chain: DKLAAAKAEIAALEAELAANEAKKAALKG

[11] = molecular target: GCN2_T; experiment: two-hybrid library CCmax
[12] = molecular target: T11, P1-AA; experiment: two-hybrid library CCmax; settings: mean of both orientations
T11 chain: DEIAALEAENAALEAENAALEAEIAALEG

[13] = molecular target: T12, P10-AA; experiment: two-hybrid library CCmax; settings: mean of both orientations
T12 chain: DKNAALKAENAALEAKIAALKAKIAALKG

[14] = molecular target: T13, P11-AA; experiment: two-hybrid library CCmax; settings: mean of both orientations
T13 chain: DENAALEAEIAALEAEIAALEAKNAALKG

[15] = molecular target: T14, P12-AA; experiment: two-hybrid library CCmax; settings: mean of both orientations
T14 chain: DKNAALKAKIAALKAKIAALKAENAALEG

[16] = molecular target: T15, P2-AA; experiment: two-hybrid library CCmax; settings: mean of both orientations
T15 chain: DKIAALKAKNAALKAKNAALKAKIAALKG

[17] = molecular target: T16, P3-AA; experiment: two-hybrid library CCmax; settings: mean of both orientations
T16 chain: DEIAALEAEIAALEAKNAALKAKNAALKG

[18] = molecular target: T17, P4-AA; experiment: two-hybrid library CCmax; settings: mean of both orientations
T17 chain: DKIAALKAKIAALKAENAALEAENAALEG

[19] = molecular target: T18, P7-AA; experiment: two-hybrid library CCmax; settings: mean of both orientations
T18 chain: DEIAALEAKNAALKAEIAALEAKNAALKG

[20] = molecular target: T19, P8-AA; experiment: two-hybrid library CCmax; settings: mean of both orientations
T19 chain: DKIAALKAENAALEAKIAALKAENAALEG

[21] = molecular target: T20, P9-AA; experiment: two-hybrid library CCmax; settings: mean of both orientations
T20 chain: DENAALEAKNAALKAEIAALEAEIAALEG

B1: 4H3057-bH (peptide)
chain: DKIQELKKKNEELKRKNWELEKEIQELER
interaction score [1]: -0.611
interaction score [2]: -1.81
interaction score [3]: -1.01
interaction score [4]: -0.361
interaction score [5]: -1.77
interaction score [6]: -1.13
interaction score [7]: -1.13
interaction score [8]: -1.52

B2: AP7-AA (peptide)
chain: DELAAEEAKNAALKAKLAAAKAEIAALEG
interaction score [9]: -1.7
interaction score [10]: -2.81
interaction score [11]: -2.13
interaction score [12]: -1.52
interaction score [13]: -0.0128
interaction score [14]: -0.965
interaction score [15]: -1.62
interaction score [16]: -1.94
interaction score [17]: -1.88
interaction score [18]: -1.42
interaction score [19]: -2.09
interaction score [20]: -0.66
interaction score [21]: -2.24

B3: AP6-AA (peptide)
chain: DEEAALEAKAAALKAELAANEAKLAAAKG
interaction score ([9]; mean of both orientations): -1.62
interaction score [10]: -1.59
interaction score [11]: -1.54
interaction score [12]: -1.88
interaction score [13]: -0.802
interaction score [14]: -1.25
interaction score [15]: -1.57
interaction score [16]: -1.88
interaction score [17]: -1.95
interaction score [18]: -2.36
interaction score [19]: -0.655
interaction score [20]: -1.22
interaction score [21]: -0.901
